According to PMC2794155:
Like-named read-outs stand apart in the source and are kept apart here.

Experiments:
[1] = molecular target: T1, MSH2;MSH6 (Saccharomyces cerevisiae;Saccharomyces …, UniProt P25847;Q03834 1-964;1-1242, |); assay: EMSA
[2] = molecular target: MSH2;MSH6 F337A (Saccharomyces cerevisiae;Saccharomyces …, UniProt P25847;Q03834 1-964;1-1242, |F337A); assay: EMSA
[3] = molecular target: T2, NHP6A (Saccharomyces cerevisiae RKY3032, UniProt P11632 1-93); assay: EMSA
[4] = molecular target: T1, MSH2;MSH6; assay: EMSA; remark: listed apart in the source
[5] = molecular target: NHP6A;MSH2;MSH6 (Saccharomyces cerevisiae …, UniProt P11632;P25847;Q03834 1-93;1-964;1-1242, ||); assay: EMSA supershift
[6] = molecular target: T2, NHP6A; assay: EMSA; remark: listed apart in the source

T2 sequence (P11632 whole entry): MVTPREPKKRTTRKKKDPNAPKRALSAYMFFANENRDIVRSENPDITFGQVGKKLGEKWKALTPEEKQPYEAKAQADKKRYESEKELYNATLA
T1 sequence (P25847 whole entry, chain 1 of 2): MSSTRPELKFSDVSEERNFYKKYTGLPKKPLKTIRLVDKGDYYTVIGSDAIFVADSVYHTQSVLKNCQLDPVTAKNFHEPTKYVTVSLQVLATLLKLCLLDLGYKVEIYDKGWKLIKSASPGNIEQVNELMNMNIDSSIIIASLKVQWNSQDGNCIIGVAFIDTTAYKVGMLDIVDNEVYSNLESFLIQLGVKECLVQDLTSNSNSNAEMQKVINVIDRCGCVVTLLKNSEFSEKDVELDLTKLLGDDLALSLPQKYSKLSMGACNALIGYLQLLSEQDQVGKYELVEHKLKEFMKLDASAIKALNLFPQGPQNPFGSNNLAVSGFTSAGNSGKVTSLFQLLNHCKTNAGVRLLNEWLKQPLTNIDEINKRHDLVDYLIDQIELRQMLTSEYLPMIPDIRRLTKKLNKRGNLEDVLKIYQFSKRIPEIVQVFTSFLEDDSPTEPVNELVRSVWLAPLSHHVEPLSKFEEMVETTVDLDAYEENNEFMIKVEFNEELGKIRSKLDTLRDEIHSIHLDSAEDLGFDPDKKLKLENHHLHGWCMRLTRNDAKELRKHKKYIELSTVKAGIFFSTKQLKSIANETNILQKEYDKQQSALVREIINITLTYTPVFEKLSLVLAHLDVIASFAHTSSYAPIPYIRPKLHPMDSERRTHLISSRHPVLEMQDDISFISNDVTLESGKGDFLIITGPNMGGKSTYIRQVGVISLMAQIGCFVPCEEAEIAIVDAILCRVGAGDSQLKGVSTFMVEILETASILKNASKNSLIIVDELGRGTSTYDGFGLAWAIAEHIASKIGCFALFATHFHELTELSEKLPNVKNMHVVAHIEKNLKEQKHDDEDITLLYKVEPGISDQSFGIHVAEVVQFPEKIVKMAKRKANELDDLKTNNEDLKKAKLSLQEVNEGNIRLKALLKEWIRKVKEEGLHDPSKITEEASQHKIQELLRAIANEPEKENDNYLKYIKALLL
T1 sequence (Q03834 whole entry, chain 2 of 2): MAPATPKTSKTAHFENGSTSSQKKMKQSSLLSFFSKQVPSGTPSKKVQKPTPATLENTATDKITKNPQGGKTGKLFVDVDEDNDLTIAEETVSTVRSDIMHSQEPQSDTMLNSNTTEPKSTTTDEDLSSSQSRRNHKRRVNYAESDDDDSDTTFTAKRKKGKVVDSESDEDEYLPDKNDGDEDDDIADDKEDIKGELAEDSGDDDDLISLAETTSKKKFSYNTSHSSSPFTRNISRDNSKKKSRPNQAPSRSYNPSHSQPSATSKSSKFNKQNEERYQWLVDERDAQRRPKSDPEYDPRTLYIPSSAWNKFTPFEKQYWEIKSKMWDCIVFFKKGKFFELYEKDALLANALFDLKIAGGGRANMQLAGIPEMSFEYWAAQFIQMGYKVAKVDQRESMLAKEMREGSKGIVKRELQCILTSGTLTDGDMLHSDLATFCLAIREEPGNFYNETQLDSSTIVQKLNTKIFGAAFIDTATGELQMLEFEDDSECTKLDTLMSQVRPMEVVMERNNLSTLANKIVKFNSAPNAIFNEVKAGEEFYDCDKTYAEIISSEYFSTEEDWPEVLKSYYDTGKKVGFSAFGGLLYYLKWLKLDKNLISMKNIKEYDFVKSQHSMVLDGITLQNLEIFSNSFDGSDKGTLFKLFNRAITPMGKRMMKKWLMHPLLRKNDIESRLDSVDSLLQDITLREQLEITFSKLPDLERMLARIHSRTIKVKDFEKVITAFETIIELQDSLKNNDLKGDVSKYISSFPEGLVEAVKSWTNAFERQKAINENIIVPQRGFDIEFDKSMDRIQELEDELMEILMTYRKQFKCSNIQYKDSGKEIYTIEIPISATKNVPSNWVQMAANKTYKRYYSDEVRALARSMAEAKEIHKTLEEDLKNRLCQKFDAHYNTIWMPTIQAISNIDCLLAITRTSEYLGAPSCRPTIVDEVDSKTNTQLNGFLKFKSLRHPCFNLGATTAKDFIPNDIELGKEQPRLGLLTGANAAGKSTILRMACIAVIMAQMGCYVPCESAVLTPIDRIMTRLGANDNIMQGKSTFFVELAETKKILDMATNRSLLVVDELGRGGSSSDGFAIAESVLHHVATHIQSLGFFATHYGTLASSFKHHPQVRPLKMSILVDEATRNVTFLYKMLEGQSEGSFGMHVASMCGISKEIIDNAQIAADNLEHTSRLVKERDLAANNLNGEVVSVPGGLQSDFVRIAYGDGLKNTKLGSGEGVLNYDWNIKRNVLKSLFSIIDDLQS
Sequence of NHP6A;MSH2;MSH6 (P11632 whole entry, chain 1 of 3): as the sequence (P11632 whole entry) above
Sequence of NHP6A;MSH2;MSH6 (P25847 whole entry, chain 2 of 3): as the sequence (P25847 whole entry, chain 1 of 2) above
Sequence of NHP6A;MSH2;MSH6 (Q03834 whole entry, chain 3 of 3): as the sequence (Q03834 whole entry, chain 2 of 2) above
Sequence of MSH2;MSH6 F337A (P25847 whole entry, chain 1 of 2): as the sequence (P25847 whole entry, chain 1 of 2) above
Sequence of MSH2;MSH6 F337A (Q03834 whole entry F337A, chain 2 of 2): as the sequence (Q03834 whole entry, chain 2 of 2) above, with F337A counted along it

B1: 50-mer T:A homoduplex (dsDNA)
DNA 1: CTCATTCAGCATAACTTGATTTCTTTCAGCAGATAGAAACCATACTGATT
DNA 2: AATCAGTATGGTTTCTATCTGCTGAAAGAAATCAAGTTATGCTGAATGAG
- binding result [1]: binds
- binding result [2]: no binding
- binding result [3]: binds

B2: 50-mer T:G heteroduplex (dsDNA)
DNA 1: CTCATTCAGCATAACTTGATTTCTTTCAGCAGATAGAAACCATACTGATT
DNA 2: AATCAGTATGGTTTCTATCTGCTGAAGGAAATCAAGTTATGCTGAATGAG
- binding result [4]: binds
- binding result [3]: binds
- binding result [5]: binds

B3: 37-mer G:C homoduplex (A/T in figures) (dsDNA)
DNA 1: ATTTCCTTCAGCAGATAGGAACCATACTGATTCACAT
DNA 2: ATGTGAATCAGTATGGTTCCTATCTGCTGAAGGAAAT
- binding result [6]: binds

B4: 37-mer G:T heteroduplex (dsDNA)
DNA 1: ATTTCCTTCAGCAGATAGGAACCATACTGATTCACAT
DNA 2: ATGTGAATCAGTATGGTTTCTATCTGCTGAAGGAAAT
- binding result [6]: binds
